Primed or numbered codes have the meaning given here. No end group written: not given here. Biotin′ = biotin label at the C-terminus
Key:
[1] = target: LAG-3-hFc protein (human LAG-3 extracellular region with hFc tag) (human) (UniProt P18627); assay: ELISA, inhibition of LSECtin-His binding to coated LAG-3-hFc, antibody 1.600 nM, replicate 2
[2] = target: human LAG-3 on cells (HEK293-hLAG-3 stable cell line) (human) (UniProt P18627); assay: FACS, HEK293-hLAG-3, antibody 0.013 nM
[3] = target: human LAG-3 on cells (HEK293-hLAG-3 stable cell line) (human) (UniProt P18627); assay: FACS, HEK293-hLAG-3, antibody 0.000 nM
[4] = target: T1, human LAG-3 on cells (HEK293-hLAG-3 stable cell line) (human, UniProt P18627 23-525); assay: FACS, HEK293-hLAG-3, antibody 0.064 nM
T1 sequence: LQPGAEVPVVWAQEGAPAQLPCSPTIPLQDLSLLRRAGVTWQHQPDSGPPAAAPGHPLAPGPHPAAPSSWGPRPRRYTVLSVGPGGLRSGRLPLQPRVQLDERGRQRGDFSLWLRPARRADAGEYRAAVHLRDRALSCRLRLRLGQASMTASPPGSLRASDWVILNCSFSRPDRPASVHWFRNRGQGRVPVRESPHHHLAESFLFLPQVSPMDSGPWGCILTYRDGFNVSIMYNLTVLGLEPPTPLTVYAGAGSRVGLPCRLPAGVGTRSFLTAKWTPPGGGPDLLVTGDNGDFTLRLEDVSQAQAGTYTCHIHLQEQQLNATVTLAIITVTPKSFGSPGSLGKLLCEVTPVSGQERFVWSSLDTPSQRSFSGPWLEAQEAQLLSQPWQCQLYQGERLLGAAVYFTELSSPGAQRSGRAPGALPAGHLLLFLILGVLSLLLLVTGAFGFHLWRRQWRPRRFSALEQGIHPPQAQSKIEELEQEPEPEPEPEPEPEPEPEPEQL

[5] = target: T1, human LAG-3 on cells (HEK293-hLAG-3 …); assay: FACS, HEK293-hLAG-3, antibody 0.013 nM
PHPAAPSSWGPRK-Biotin = target: T2, PHPAAPSSWGPRK-Biotin (human); assay: peptide scanning ELISA, biotin peptide on streptavidin
T2 construct: Overlapping peptide of the outer loop of human LAG-3; also called LAG-3 Extra cyclic peptide
T2 peptide: PHPAAPSSWGPRK-{Biotin′}
Method: (§1) Fifteen overlapping peptides including the full length of the outer loop sequence were prepared and biotin was coupled to each C-terminus. Enzyme-linked immunosorbent assay (ELISA) was used to detect the binding of antibodies to these peptides. Streptavidin (sigma, Cat #M5432) was diluted with PBS to a final concentration of 1.0 μg/ml, and then added as 100 μl per well to a 96-well ELISA plate. The plate was sealed with plastic film and incubated overnight at 4° C. The plate was washed 2 times with the plate washing solution (PBS+0.01% Tween20) on the next day, and added with the blocking solution (PBS+0.01% Tween20+1% BSA) and blocked at room temperature for 1-2 hours. The blocking solution was poured off, and biotinylated peptides was added to a final concentration of 1 ug/ml, as 100 ul per well to the 96-well ELISA plate, incubated at 37° C. for 1-2 hours, then washed with plate washing solution (PBS+0.01% Tween20)2-3 times. Then the antibody samples to be tested were incubated as 100 μl per well at 37° C. for 1-2 hours, and then the plate was washed 2-3 times with a plate washing solution (PBS+0.01% Tween20). HRP (horseradish peroxidase) labeled secondary antibody was added, and the plate was incubated at 37° C. for 1-2 hours, and washed 2-3 times with a plate washing solution (PBS+0.01% Tween20). 100 μl of TMB substrate was added to each well. After incubated at room temperature for 15-30 minutes, the plate was added with 100 μl of stop solution (1.0N HCl) to each well.

HPAAPSSWGPRPK-Biotin = target: T3, HPAAPSSWGPRPK-Biotin (human); assay: as above
T3 construct: Overlapping peptide of the outer loop of human LAG-3; also called LAG-3 Extra cyclic peptide
T3 peptide: HPAAPSSWGPRPK-{Biotin′}
Method: as §1

hIgG control (antibody) gave an Inhibition rate (%) [1] of -7.4%, a Mean fluorescence intensity [2] of 3 and a Mean fluorescence intensity [3] of 3.

B1: 556F6B8 mouse-human chimeric antibody (antibody, V domains shown)
VH: RVQLKQSGPGLVQPSQSLSITCTVSGFSLIKYGVHWVRQSPGEGLEWLGVIWRGGITDYNAAFMSRLSITKDNSKSQVFFKMNSLQADDTAIYYCAKWDGPLAMDYWGQGTSVTVSS
VL: DIVMTQSHKFLSTSVGDRVSITCKASQDVGTTVAWYQQKPGQSPKLLIYWASTRHTGVPDRFTGSGSGTDFTLTISNVQSEDLADYFCQQYSSYPYTFGGGTKLEIK
notes: also called mAb123-556F6B8; 556F8B8
B1 gave a Mean fluorescence intensity [4] of 12 and a Mean fluorescence intensity [5] of 6.

B2: 105F1E10 (mouse antibody purified from hybridoma) (antibody, V domains shown)
VH: EVQLQQSGPELVKPGASVKMSCRASGYTFTDFKMHWMKQSHGKSLEWIGYIAPNNGGTAYNQKFRGKATLTVNESSNTAYMELRSLTSEDSAVYYCVDWDDVDYWGQGTTLTVSS
VL: DIKMTQSPSSMYASLGERVTITCKASQDINSYLSWFQQKSGKSPKTLIYRANRLVDGVPSRFSGSGSGQDYSLTISSLEYEDMGIYYCLQYVEFPLTFGAGTKLELK
notes: also called mAb009-105F1E10
B2: binds (PHPAAPSSWGPRK-Biotin); binds (HPAAPSSWGPRPK-Biotin).

— US20210155689A1 (SHANGHAI PHARMAEXPLORER, published 2021)
